Reference: US11999805

Columns and labels:
[1] = molecular target: SpyCas9 (S. pyogenes) (UniProt Q99ZW2); assay: cell-based or functional assay
[2] = system: T1, 90-1-27
T1 sequence: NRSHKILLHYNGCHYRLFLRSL

[3] = system: T2, Peptide 91
T2 sequence: VYDFYRMLSHFFLKGPSR

[4] = system: T3, 82-2-12
T3 sequence: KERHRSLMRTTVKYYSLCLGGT

[5] = system: T4, 50-20-14
T4 sequence: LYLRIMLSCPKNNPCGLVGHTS

[6] = system: T5, 60-1-56
T5 sequence: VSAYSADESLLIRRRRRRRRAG

[7] = system: T6, 63-2-27
T6 sequence: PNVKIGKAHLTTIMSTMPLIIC

[8] = system: T7, 90-2-5
T7 sequence: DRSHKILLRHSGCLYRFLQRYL

[9] = system: T8, Peptide 73
T8 sequence: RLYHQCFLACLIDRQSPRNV

[10] = system: T9, Peptide 90
T9 sequence: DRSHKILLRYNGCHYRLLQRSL

[11] = system: T10, Peptide 60
T10 sequence: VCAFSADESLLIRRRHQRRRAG

[12] = system: T11, Peptide 99
T11 sequence: RRSHIAWLLAMSLTWYS

[13] = system: T12, 50-2-13
T12 sequence: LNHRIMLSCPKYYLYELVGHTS

[14] = system: T13, Peptide 80
T13 sequence: TESIRSYFAMTIRRNH

[15] = system: T14, 60-1-10
T14 sequence: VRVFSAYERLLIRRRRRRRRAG

[16] = system: T15, 82-2-21
T15 sequence: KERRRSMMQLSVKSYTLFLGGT

[17] = system: T16, Peptide 82
T16 sequence: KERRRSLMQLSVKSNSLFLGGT

[18] = system: T17, 90-2-18
T17 sequence: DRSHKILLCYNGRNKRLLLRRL

[19] = system: T18, Peptide 15
T18 sequence: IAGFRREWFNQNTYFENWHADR

[20] = system: T19, 50-2-16
T19 sequence: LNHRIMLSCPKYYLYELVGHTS

[21] = system: T20, 99-2-2
T20 sequence: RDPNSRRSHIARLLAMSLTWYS

[22] = system: T21, Peptide 61
T21 sequence: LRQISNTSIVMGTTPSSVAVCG

[23] = system: T22, 63-2-87
T22 sequence: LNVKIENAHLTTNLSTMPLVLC

[24] = system: T23, 90-1-18
T23 sequence: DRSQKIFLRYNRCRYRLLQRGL

[25] = system: T24, 90-1-50
T24 sequence: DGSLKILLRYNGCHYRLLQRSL

[26] = system: T25, 82-2-28
T25 sequence: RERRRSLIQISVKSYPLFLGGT

[27] = system: T26, Peptide 63
T26 sequence: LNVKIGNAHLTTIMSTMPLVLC

[28] = system: T27, 99-1-1
T27 sequence: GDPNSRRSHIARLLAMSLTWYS

[29] = system: T28, Peptide 50
T28 sequence: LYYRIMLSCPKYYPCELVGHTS

## AcrIIA4
[1]
  reduced editing (compared to plasmid control), A549 GFP reporter cells: 74%

## SpyCas9
[2]
  decrease in cleavage-based fluorescence at 200 µM peptide, FRET assay: All of the MPs drastically reduced SpyCas9 substrate cleavage at 200 µM with a greater than 88% decrease in fluorescence
  substrate cleavage, denaturing 15% urea PAGE, peptide 200 µM: 17 hits were identified that reduced fluorescence and substrate cleavage in the Cas9 cleavage reaction (visualized by Gel) at 200 µM
[3]
  % activity, FRET cleavage assay: Peptide 60, 90, and 91 significantly reduced activity of SauCas9 and SpyCas9 at 200 µM (P<0.005)
  substrate cleavage, FRET assay, peptide 200 to 12.5 µM: the peptides inhibited substrate cleavage in a peptide concentration-dependent manner
[4]
  decrease in cleavage-based fluorescence at 200 µM peptide, FRET assay: All of the MPs drastically reduced SpyCas9 substrate cleavage at 200 µM with a greater than 88% decrease in fluorescence
  substrate cleavage, denaturing 15% urea PAGE, peptide 200 µM: 17 hits were identified that reduced fluorescence and substrate cleavage in the Cas9 cleavage reaction (visualized by Gel) at 200 µM
[5]
  decrease in cleavage-based fluorescence at 200 µM peptide, FRET assay: All of the MPs drastically reduced SpyCas9 substrate cleavage at 200 µM with a greater than 88% decrease in fluorescence
  substrate cleavage, denaturing 15% urea PAGE, peptide 200 µM: 17 hits were identified that reduced fluorescence and substrate cleavage in the Cas9 cleavage reaction (visualized by Gel) at 200 µM
[6]
  decrease in cleavage-based fluorescence at 200 µM peptide, FRET assay: All of the MPs drastically reduced SpyCas9 substrate cleavage at 200 µM with a greater than 88% decrease in fluorescence
  substrate cleavage, denaturing 15% urea PAGE, peptide 200 µM: 17 hits were identified that reduced fluorescence and substrate cleavage in the Cas9 cleavage reaction (visualized by Gel) at 200 µM
[7]
  decrease in cleavage-based fluorescence at 200 µM peptide, FRET assay: All of the MPs drastically reduced SpyCas9 substrate cleavage at 200 µM with a greater than 88% decrease in fluorescence
  substrate cleavage, denaturing 15% urea PAGE, peptide 200 µM: 17 hits were identified that reduced fluorescence and substrate cleavage in the Cas9 cleavage reaction (visualized by Gel) at 200 µM
[8]
  decrease in cleavage-based fluorescence at 200 µM peptide, FRET assay: All of the MPs drastically reduced SpyCas9 substrate cleavage at 200 µM with a greater than 88% decrease in fluorescence
  substrate cleavage, denaturing 15% urea PAGE, peptide 200 µM: 17 hits were identified that reduced fluorescence and substrate cleavage in the Cas9 cleavage reaction (visualized by Gel) at 200 µM
[9]
  substrate cleavage, FRET assay, peptide 200 to 12.5 µM: the peptides inhibited substrate cleavage in a peptide concentration-dependent manner
[10]
  % activity, FRET cleavage assay: Peptide 60, 90, and 91 significantly reduced activity of SauCas9 and SpyCas9 at 200 µM (P<0.005)
  substrate cleavage, FRET assay, peptide 200 to 12.5 µM: the peptides inhibited substrate cleavage in a peptide concentration-dependent manner
[11]
  % activity, FRET cleavage assay: Peptide 60, 90, and 91 significantly reduced activity of SauCas9 and SpyCas9 at 200 µM (P<0.005)
  substrate cleavage, FRET assay, peptide 200 to 12.5 µM: the peptides inhibited substrate cleavage in a peptide concentration-dependent manner
[12]
  % activity, FRET cleavage assay: Peptide 99 significantly reduced activity of all three Cas9 variants at 100 and 200 µM (P<0.005)
  substrate cleavage, FRET assay, peptide 200 to 12.5 µM: the peptides inhibited substrate cleavage in a peptide concentration-dependent manner
[13]
  decrease in cleavage-based fluorescence at 200 µM peptide, FRET assay: All of the MPs drastically reduced SpyCas9 substrate cleavage at 200 µM with a greater than 88% decrease in fluorescence
  substrate cleavage, denaturing 15% urea PAGE, peptide 200 µM: 17 hits were identified that reduced fluorescence and substrate cleavage in the Cas9 cleavage reaction (visualized by Gel) at 200 µM
[14]
  substrate cleavage, FRET assay, peptide 200 to 12.5 µM: the peptides inhibited substrate cleavage in a peptide concentration-dependent manner
[15]
  decrease in cleavage-based fluorescence at 200 µM peptide, FRET assay: All of the MPs drastically reduced SpyCas9 substrate cleavage at 200 µM with a greater than 88% decrease in fluorescence
  substrate cleavage, denaturing 15% urea PAGE, peptide 200 µM: 17 hits were identified that reduced fluorescence and substrate cleavage in the Cas9 cleavage reaction (visualized by Gel) at 200 µM
[16]
  decrease in cleavage-based fluorescence at 200 µM peptide, FRET assay: All of the MPs drastically reduced SpyCas9 substrate cleavage at 200 µM with a greater than 88% decrease in fluorescence
  substrate cleavage, denaturing 15% urea PAGE, peptide 200 µM: 17 hits were identified that reduced fluorescence and substrate cleavage in the Cas9 cleavage reaction (visualized by Gel) at 200 µM
[17]
  substrate cleavage, FRET assay, peptide 200 to 12.5 µM: the peptides inhibited substrate cleavage in a peptide concentration-dependent manner
[18]
  decrease in cleavage-based fluorescence at 200 µM peptide, FRET assay: All of the MPs drastically reduced SpyCas9 substrate cleavage at 200 µM with a greater than 88% decrease in fluorescence
  substrate cleavage, denaturing 15% urea PAGE, peptide 200 µM: 17 hits were identified that reduced fluorescence and substrate cleavage in the Cas9 cleavage reaction (visualized by Gel) at 200 µM
[19]
  % activity, FRET cleavage assay: Peptide15 significantly reduced activity of CjeCas9 and SpyCas9 and SauCas9 at 200 µM (P<0.01)
  substrate cleavage, FRET assay, peptide 200 to 12.5 µM: the peptides inhibited substrate cleavage in a peptide concentration-dependent manner
[20]
  decrease in cleavage-based fluorescence at 200 µM peptide, FRET assay: All of the MPs drastically reduced SpyCas9 substrate cleavage at 200 µM with a greater than 88% decrease in fluorescence
  substrate cleavage, denaturing 15% urea PAGE, peptide 200 µM: 17 hits were identified that reduced fluorescence and substrate cleavage in the Cas9 cleavage reaction (visualized by Gel) at 200 µM
[21]
  decrease in cleavage-based fluorescence at 200 µM peptide, FRET assay: All of the MPs drastically reduced SpyCas9 substrate cleavage at 200 µM with a greater than 88% decrease in fluorescence
  substrate cleavage, denaturing 15% urea PAGE, peptide 200 µM: 17 hits were identified that reduced fluorescence and substrate cleavage in the Cas9 cleavage reaction (visualized by Gel) at 200 µM
[22]
  substrate cleavage, FRET assay, peptide 200 to 12.5 µM: the peptides inhibited substrate cleavage in a peptide concentration-dependent manner
[23]
  decrease in cleavage-based fluorescence at 200 µM peptide, FRET assay: All of the MPs drastically reduced SpyCas9 substrate cleavage at 200 µM with a greater than 88% decrease in fluorescence
  substrate cleavage, denaturing 15% urea PAGE, peptide 200 µM: 17 hits were identified that reduced fluorescence and substrate cleavage in the Cas9 cleavage reaction (visualized by Gel) at 200 µM
[24]
  decrease in cleavage-based fluorescence at 200 µM peptide, FRET assay: All of the MPs drastically reduced SpyCas9 substrate cleavage at 200 µM with a greater than 88% decrease in fluorescence
  substrate cleavage, denaturing 15% urea PAGE, peptide 200 µM: 17 hits were identified that reduced fluorescence and substrate cleavage in the Cas9 cleavage reaction (visualized by Gel) at 200 µM
[25]
  decrease in cleavage-based fluorescence at 200 µM peptide, FRET assay: All of the MPs drastically reduced SpyCas9 substrate cleavage at 200 µM with a greater than 88% decrease in fluorescence
  substrate cleavage, denaturing 15% urea PAGE, peptide 200 µM: 17 hits were identified that reduced fluorescence and substrate cleavage in the Cas9 cleavage reaction (visualized by Gel) at 200 µM
[26]
  decrease in cleavage-based fluorescence at 200 µM peptide, FRET assay: All of the MPs drastically reduced SpyCas9 substrate cleavage at 200 µM with a greater than 88% decrease in fluorescence
  substrate cleavage, denaturing 15% urea PAGE, peptide 200 µM: 17 hits were identified that reduced fluorescence and substrate cleavage in the Cas9 cleavage reaction (visualized by Gel) at 200 µM
[27]
  substrate cleavage, FRET assay, peptide 200 to 12.5 µM: the peptides inhibited substrate cleavage in a peptide concentration-dependent manner
[28]
  decrease in cleavage-based fluorescence at 200 µM peptide, FRET assay: All of the MPs drastically reduced SpyCas9 substrate cleavage at 200 µM with a greater than 88% decrease in fluorescence
  substrate cleavage, denaturing 15% urea PAGE, peptide 200 µM: 17 hits were identified that reduced fluorescence and substrate cleavage in the Cas9 cleavage reaction (visualized by Gel) at 200 µM
[29]
  substrate cleavage, FRET assay, peptide 200 to 12.5 µM: the peptides inhibited substrate cleavage in a peptide concentration-dependent manner
